From US20180009892A1

Legend:
[1] = target: T1, human ROR1 extracellular domain (ECD) protein (human), Q01973; experiment: ForteBio Octet, Wnt5a binding to ROR1 in the presence of the control mAb
[2] = target: T1, human ROR1 extracellular domain (ECD) …; experiment: ForteBio Octet, Wnt5a binding to ROR1 in the presence of antibody 601-3-2
[3] = target: T1, human ROR1 extracellular domain (ECD) …; experiment: ForteBio Octet, Wnt5a binding to ROR1 in the presence of antibody 601-3-12
[4] = target: T1, human ROR1 extracellular domain (ECD) …; experiment: ForteBio Octet, Wnt5a binding to ROR1 in the presence of antibody 601-3-16

T1 sequence (Q01973 30-406 limits assumed): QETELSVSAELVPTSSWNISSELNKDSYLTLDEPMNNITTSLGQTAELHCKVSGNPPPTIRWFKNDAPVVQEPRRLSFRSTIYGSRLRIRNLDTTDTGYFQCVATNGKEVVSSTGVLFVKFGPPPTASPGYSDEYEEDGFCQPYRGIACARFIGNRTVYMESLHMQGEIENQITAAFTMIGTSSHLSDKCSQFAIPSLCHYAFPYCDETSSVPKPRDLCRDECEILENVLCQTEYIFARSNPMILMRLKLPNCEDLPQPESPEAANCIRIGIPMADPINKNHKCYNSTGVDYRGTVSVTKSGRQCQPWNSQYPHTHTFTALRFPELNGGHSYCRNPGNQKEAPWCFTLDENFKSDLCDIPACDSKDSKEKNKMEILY

B1: Wnt5a, P41221 62-380 (ligand, UniProt P41221 62-380, looked up)
chain: IIGAQPLCSQLAGLSQGQKKLCHLYQDHMQYIGEGAKTGIKECQYQFRHRRWNCSTVDNTSVFGRVMQIGSRETAFTYAVSAAGVVNAMSRACREGELSTCGCSRAARPKDLPRDWLWGGCGDNIDYGYRFAKEFVDARERERIHAKGSYESARILMNLHNNEAGRRTVYNLADVACKCHGVSGSCSLKTCWLQLADFRKVGDALKEKYDSAAAMRLNSRGKLVQVNSRFNSPTTQDLVYIDPSPDYCVRNESTGSLGTQGRLCNKTSEGMDGCELMCCGRGYDQFKTVQTERCHCKFHWCCYVKCKKCTEIVDQFVCK
With B1 the Pesudo ka [1] was 21000 M⁻¹ s⁻¹, the Pesudo ka [2] was 13000 M⁻¹ s⁻¹ and the Pesudo ka [3] was 5300 M⁻¹ s⁻¹. It also gave a Pesudo ka [4] of 6700 M⁻¹ s⁻¹.
